Assay results published in PMC12855784.
Where two headings read alike, the source gives them in different places.

Assays:
Experiment in all cases: SEC-MALS
[1] = molecular target: AcrIIA19 (full length, C-terminal 6×His tag) (Staphylococcus pseudintermedius)
[2] = molecular target: Streptococcus pyogenes Cas9, full length, 6×His tagged (Streptococcus pyogenes) (UniProt Q99ZW2)
[3] = molecular target: AcrIIA19 (full length, C-terminal 6×His tag) (Staphylococcus pseudintermedius); remark: listed apart in the source

Chain of UniProt Q99ZW2 (Q99ZW2 whole entry): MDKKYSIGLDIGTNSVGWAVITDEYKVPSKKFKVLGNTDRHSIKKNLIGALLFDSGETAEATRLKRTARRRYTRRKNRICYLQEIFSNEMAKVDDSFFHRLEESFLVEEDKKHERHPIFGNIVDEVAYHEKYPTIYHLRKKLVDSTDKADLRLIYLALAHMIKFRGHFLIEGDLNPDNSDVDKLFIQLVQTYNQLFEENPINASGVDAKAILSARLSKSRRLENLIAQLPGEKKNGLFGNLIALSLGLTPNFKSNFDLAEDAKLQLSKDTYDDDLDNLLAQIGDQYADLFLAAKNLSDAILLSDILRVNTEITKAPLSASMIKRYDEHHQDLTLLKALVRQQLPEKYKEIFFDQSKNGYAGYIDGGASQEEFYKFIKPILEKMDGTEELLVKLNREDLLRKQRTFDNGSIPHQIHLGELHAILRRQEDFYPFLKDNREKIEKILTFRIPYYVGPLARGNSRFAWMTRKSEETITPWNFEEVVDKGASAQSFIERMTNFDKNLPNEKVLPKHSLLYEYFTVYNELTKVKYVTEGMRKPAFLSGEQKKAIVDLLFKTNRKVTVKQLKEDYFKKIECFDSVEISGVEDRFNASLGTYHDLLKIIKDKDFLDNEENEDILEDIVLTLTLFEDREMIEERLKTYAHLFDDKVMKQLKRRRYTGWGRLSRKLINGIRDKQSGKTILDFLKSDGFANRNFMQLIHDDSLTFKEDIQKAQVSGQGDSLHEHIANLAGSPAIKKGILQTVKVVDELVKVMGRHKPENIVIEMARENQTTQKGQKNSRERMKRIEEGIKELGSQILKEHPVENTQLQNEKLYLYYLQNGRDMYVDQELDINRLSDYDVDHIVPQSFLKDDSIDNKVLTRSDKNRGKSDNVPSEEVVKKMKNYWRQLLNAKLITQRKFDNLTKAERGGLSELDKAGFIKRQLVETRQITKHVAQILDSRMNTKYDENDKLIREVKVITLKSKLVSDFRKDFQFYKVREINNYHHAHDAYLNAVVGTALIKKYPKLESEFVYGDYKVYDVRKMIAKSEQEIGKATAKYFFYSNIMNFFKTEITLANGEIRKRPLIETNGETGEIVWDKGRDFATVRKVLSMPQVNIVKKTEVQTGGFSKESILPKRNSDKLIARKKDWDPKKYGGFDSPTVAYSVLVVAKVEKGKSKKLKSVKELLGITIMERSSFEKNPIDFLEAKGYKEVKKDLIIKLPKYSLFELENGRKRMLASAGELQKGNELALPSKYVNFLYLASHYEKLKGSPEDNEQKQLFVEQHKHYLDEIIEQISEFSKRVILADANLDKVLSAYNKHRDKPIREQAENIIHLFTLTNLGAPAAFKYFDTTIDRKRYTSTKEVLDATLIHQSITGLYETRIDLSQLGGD

AcrIIA19 (full length, C-terminal 6×His tag) (natural protein)
stoichiometry N [1]: 2
stoichiometry N (AcrIIA19 per Cas9) [2]: 1
stoichiometry N [3]: 2
